The chains are these.
B1: Fv4-P587 (antibody)
chain 1: QVQLQESGPGLVKPSETLSLTCAVSGHSISHDHAWSWVRQPPGEGLEWIGFISYSGITNYNPSLQGRVTISRDNSKNTLYLQMNSLRAEDTAVYYCARSLARTTAMDYWGEGTLVTVSSASTKGPSVFPLAPSSKSTSGGTAALGCLVKDYFPEPVTVSWNSGALTSGVHTFPAVLQSSGLYSLSSVVTVPSSSLGTQTYICNVNHKPSNTKVDKKVEPKSCDKTHTCPPCPAPDLLGGDSVFLFPPKPKDTLMISRTPEVTCVVIDVAEEDGEVKFNWYVDGVEVHNAKTKPREEQYNSTYRVVSVLTVLHQDWLNGKEYKCKVSNKALPAPIEKTISKAKGQPREPQVYTLPPSRDELTKNQVSLTCLVKGFYPSDIAVEWESNGQPENNYKTTPPVLDSDGSFFLYSKLTVDKSRWQQGNVFSCSVMHEALHNHYTQKSLSLSP
chain 2: DIQMTQSPSSLSASVGDSVTITCQASTDISSHLNWYQQKPGKAPELLIYYGSHLLSGVPSRFSGSGSGTDFTFTISSLEAEDAATYYCGQGNRLPYTFGQGTKVEIERTVAAPSVFIFPPSDEQLKSGTASVVCLLNNFYPREAKVQWKVDNALQSGNSQESVTEQDSKDSTYSLSSTLTLSKADYEKHKVYACEVTHQGLSSPVTKSFNRGEC
B2: Fv4-P587-LS (antibody)
chain 1: QVQLQESGPGLVKPSETLSLTCAVSGHSISHDHAWSWVRQPPGEGLEWIGFISYSGITNYNPSLQGRVTISRDNSKNTLYLQMNSLRAEDTAVYYCARSLARTTAMDYWGEGTLVTVSSASTKGPSVFPLAPSSKSTSGGTAALGCLVKDYFPEPVTVSWNSGALTSGVHTFPAVLQSSGLYSLSSVVTVPSSSLGTQTYICNVNHKPSNTKVDKKVEPKSCDKTHTCPPCPAPDLLGGDSVFLFPPKPKDTLMISRTPEVTCVVIDVAEEDGEVKFNWYVDGVEVHNAKTKPREEQYNSTYRVVSVLTVLHQDWLNGKEYKCKVSNKALPAPIEKTISKAKGQPREPQVYTLPPSRDELTKNQVSLTCLVKGFYPSDIAVEWESNGQPENNYKTTPPVLDSDGSFFLYSKLTVDKSRWQQGNVFSCSVLHEALHSHYTQKSLSLSP
chain 2: DIQMTQSPSSLSASVGDSVTITCQASTDISSHLNWYQQKPGKAPELLIYYGSHLLSGVPSRFSGSGSGTDFTFTISSLEAEDAATYYCGQGNRLPYTFGQGTKVEIERTVAAPSVFIFPPSDEQLKSGTASVVCLLNNFYPREAKVQWKVDNALQSGNSQESVTEQDSKDSTYSLSSTLTLSKADYEKHKVYACEVTHQGLSSPVTKSFNRGEC
B3: Fv4-IgG1 (antibody)
chain 1: not shown
chain 2: DIQMTQSPSSLSASVGDSVTITCQASTDISSHLNWYQQKPGKAPELLIYYGSHLLSGVPSRFSGSGSGTDFTFTISSLEAEDAATYYCGQGNRLPYTFGQGTKVEIERTVAAPSVFIFPPSDEQLKSGTASVVCLLNNFYPREAKVQWKVDNALQSGNSQESVTEQDSKDSTYSLSSTLTLSKADYEKHKVYACEVTHQGLSSPVTKSFNRGEC

The Kd is the equilibrium constant for the complex coming apart. A high value points to lower affinity.

The target of the assay is human FcRn (human, UniProt P55899). Description: SPR, pH 6.0, 25C. A general note: Surface plasmon resonance follows binding to a sensor surface in real time, without labels.
Chain of human FcRn (P55899 24-297, chain 1 of 2): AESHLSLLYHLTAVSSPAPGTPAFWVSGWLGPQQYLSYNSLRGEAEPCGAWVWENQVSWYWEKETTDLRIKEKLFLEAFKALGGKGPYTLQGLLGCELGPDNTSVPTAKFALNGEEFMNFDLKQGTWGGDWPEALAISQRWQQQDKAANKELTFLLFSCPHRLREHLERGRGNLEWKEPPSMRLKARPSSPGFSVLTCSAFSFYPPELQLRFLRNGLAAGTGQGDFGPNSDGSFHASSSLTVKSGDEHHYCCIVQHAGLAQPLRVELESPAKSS
Chain of human FcRn (chain, as listed by the source, chain 2 of 2): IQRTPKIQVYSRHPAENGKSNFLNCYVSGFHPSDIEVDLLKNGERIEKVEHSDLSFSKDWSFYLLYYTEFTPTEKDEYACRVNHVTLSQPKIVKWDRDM
The molecule B1 returned a Kd of 1500 nM.

B2 had an equilibrium dissociation constant (Kd) of 120 nM.

Molecule B3 registered a Kd of 1400 nM.

For the origin of these results see patent US10919953 (dated 2021).
